Residue numbers refer to the chain shown, from its start. Like-named read-outs stand apart in the source and are kept apart here. One block for each binder: values may come before it.
Experiments:
[1] = target: T1, human EGFR ECD-Fc fusion protein (R&D Systems) (human, UniProt P00533 25-645); assay: phage ELISA, Fab on phage, immobilized EGFR, with competitor ICR10 (Domain I)
T1 construct: extracellular domain; also called rhEGFR-Fc; EGFR-Fc; not shown: Fc part of the bought fusion protein, not described

[2] = target: T1, human EGFR ECD-Fc fusion protein (R&D …); assay: phage ELISA, Fab on phage, immobilized EGFR, no IgG
[3] = target: T1, human EGFR ECD-Fc fusion protein (R&D …); assay: phage ELISA, Fab on phage, immobilized EGFR, with competitor EGFR.1 (Domain II)
[4] = target: T2, mouse EGFR ECD fused to human IgG1 Fc (Sino Biologicals cat. nr. 51091-M02H) (mouse; human, UniProt Q01279 25-647); assay: ELISA on coated mouse EGFR ECD-human IgG1 Fc
T2 construct: extracellular domain; also called murine EGFR; not shown: human IgG1 Fc

[5] = target: T1, human EGFR ECD-Fc fusion protein (R&D …); assay: phage ELISA, Fab on phage, immobilized EGFR, with competitor MatuzuMab (Domain III)
[6] = target: T1, human EGFR ECD-Fc fusion protein (R&D …); assay: phage ELISA, Fab on phage, immobilized EGFR, with competitor Cetuximab (Domain III)
[7] = target: T3, chimeric cynomolgus-human EGFR (cynomolgus ECD, human trans-membrane …, UniProt P55245 25-1210 (rhesus entry)); assay: FACS, CHO cells transfected with chimeric cynomolgus/human EGFR, IgG at 5 µg/ml
T3 construct: also called cynomolgus EGFR; chimeric cyno-human receptor

human EGFR, full length [8] = target: T4, human EGFR, full length (human, UniProt P00533 25-1210); assay: cell-based or functional assay
[9] = target: T3, chimeric cynomolgus-human EGFR; assay: FACS, CHO cells transfected with chimeric cynomolgus/human EGFR, IgG at 5 µg/ml; remark: listed apart in the source
CHO-delta III = target: T5, CHO-delta III; assay: FACS on CHO cells expressing the domain III swap mutant (CHO-delta III)
T5 construct: also called EGFR HER3 swap varIII ECD; domain III swap mutant
T5 chain: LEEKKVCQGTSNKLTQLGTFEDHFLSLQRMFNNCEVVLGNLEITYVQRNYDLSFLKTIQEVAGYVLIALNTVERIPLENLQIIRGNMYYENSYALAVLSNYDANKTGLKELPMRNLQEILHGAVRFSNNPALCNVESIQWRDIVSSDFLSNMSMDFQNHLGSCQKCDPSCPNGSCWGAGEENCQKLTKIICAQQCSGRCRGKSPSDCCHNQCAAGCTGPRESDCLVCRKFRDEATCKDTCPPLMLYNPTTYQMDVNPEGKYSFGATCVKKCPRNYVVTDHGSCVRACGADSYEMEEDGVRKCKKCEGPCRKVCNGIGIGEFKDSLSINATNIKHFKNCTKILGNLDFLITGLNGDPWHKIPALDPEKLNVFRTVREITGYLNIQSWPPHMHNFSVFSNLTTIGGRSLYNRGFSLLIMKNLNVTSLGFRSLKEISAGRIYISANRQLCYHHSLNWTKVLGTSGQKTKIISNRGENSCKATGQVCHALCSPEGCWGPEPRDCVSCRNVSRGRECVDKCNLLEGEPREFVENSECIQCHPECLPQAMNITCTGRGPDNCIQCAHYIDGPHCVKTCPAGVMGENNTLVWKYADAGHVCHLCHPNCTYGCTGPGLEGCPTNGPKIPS

CHO-vIII = target: T6, CHO-vIII (human, UniProt P00533); assay: FACS on CHO cells expressing EGFR variant III (CHO-vIII)
T6 construct: expressed on CHO cells; also called EGFR variant III

CHO-delta IV = target: T7, CHO-delta IV; assay: FACS on CHO cells expressing the domain IV swap mutant (CHO-delta IV)
T7 construct: also called EGFR HER3 swap varIV ECD; domain IV swap mutant

CHO-delta II = target: T8, CHO-delta II; assay: FACS on CHO cells expressing the domain II swap mutant (CHO-delta II)
T8 construct: also called EGFR HER3 swap varII ECD; domain II swap mutant

human EGFR, full length [10] = target: T4, human EGFR, full length; assay: FACS on CHO cells stably expressing wtEGFR (CHO-wtEGFR)

B2: PG4289 (antibody, IgG1, V domains shown)
VH: QVQLVQSGSELKKPGASVKVSCKTSGYTFTDYAMTWVRQAPGQGLEWMGWITTNTGDPTYAPGFTGRFVFSLDTSVSTAYLQISSLKAEDTAVYYCARVYHWIRGFEFWGQGTLVTVSS
VL: not shown
notes: Mono-specific bivalent full length IgG1 with the common light chain; also called MF4289; MG4289
OD [1]: 2.05
OD [2]: 2.28
OD [3]: 2.23
OD [5]: 2.36
OD [6]: 2.22
binding result [7]: binds
EGFR blocking activity compared to cetuximab (inhibition of EGF-induced cell death of A431 cells) (human EGFR, full length [8]): 80%

B4: PG3998 (antibody, IgG1, V domains shown)
VH: QVQLVQSGSELKKPGASVKVSCKASGYTFTNNAINWVRQAPGQGLEWMGWINTITGDPTYAQGFTGRFVFSLDTSVSTAYLQISSLKAEDTGVYYCAREEFLEWLFFDYWGQGTLVTVSS
VL: not shown
notes: Mono-specific bivalent full length IgG1 with the common light chain, from 293F cells; also called MF3998; MG3998
OD [1]: 2.23
OD [2]: 2.49
OD [3]: 2.34
OD [5]: 0.671
OD [6]: 0.101
binding result [7]: binds
EGFR blocking activity compared to cetuximab (inhibition of EGF-induced cell death of A431 cells) (human EGFR, full length [8]): > 100%

Continued, in another order:

OD [1]: 2.3
OD [2]: 2.55
OD [3]: 2.13
binding result [4]: no binding (tested: 5 µg/ml)
OD [5]: 0.613
OD [6]: 1.14
binding result [7]: binds
B1: PG4280 (antibody, IgG1, V domains shown)
VH: QVQLVQSGAEVKKPGASVKVSCKVSGYTLTELSMHWVRQAPGKGLEWMGGFDPEYGKTFFAQNFQGRVTMTEDTSADTAYMELSSLRSEDTAVYYCATEGYYETTTYYYNLFDSWGQGTLVTVSS
VL: not shown
notes: Mono-specific bivalent full length IgG1 with the common light chain; also called MF4280; MG4280
EGFR blocking activity compared to cetuximab (inhibition of EGF-induced cell death of A431 cells) (human EGFR, full length [8]): 100%

binding result [9]: binds
binding result (CHO-delta III): binds
binding result (CHO-vIII): no binding
binding result (CHO-delta IV): binds
binding result (CHO-delta II): binds
binding result (human EGFR, full length [10]): binds
B3: PG4003 (antibody, IgG1, V domains shown)
VH: QVQLVQSGSELKKPGASVKVSCKASGYTFPSFAMNWLRQAPGQGLEWMGWITTNTGDPTYAQGFSGRFVFSLDTSVSTAYLQISSLKAEDTAVYYCARVYNWIRGFDYWGQGTLVTVSS
VL: not shown
notes: Mono-specific bivalent full length IgG1 with the common light chain; also called MF4003; MG4003

binding result [9]: binds
binding result (CHO-delta III): no binding
binding result (CHO-delta IV): binds
binding result (CHO-delta II): binds
binding result (human EGFR, full length [10]): binds
B5: PG4010 (antibody, IgG1, V domains shown)
VH: B4 VH with I34M, T59S, S77N, G92A
VL: not shown
notes: Mono-specific bivalent full length IgG1 with the common light chain; also called MF4010; MG4010

— US10844127 (MERUS N V, dated 2020)
